Experimental data from PMC6829862, “Gγ and Gα Identity Dictate a G-Protein Heterotrimer Plasma Membrane Targeting” (Cells, 2019).
Values belong to the binder of their own block, whether it stands above or below them.

Target: T1, mCherry–Gβ1γ2 dimer (UniProt P62873 1-340; P59768 1-71, 20-carbon geranylgeranyl lipid on the cysteine of the C-terminal CaaX motif (said of Gγ2 in general))
T1 construct: Gβ1 subunit; cDNA in pcDNA3.1+ from UMR cDNA Resource Center; FP cloned at the N-terminus; Gγ2 subunit; source: HEK 293, transiently co-transfected (mCherry–Gβ1 and Gγ2), in living cells; not shown: mCherry, N-terminal, kept
Experiment: FRET or BRET; FLIM-FRET in living transiently transfected HEK 293 cells at 37 °C; donor Citrine in Gα, acceptor mCherry on Gβ1 with the appropriate Gγ; efficiency E = 1 − τda/τd from the short lifetime component τ1 (donor alone 2.7 ± 0.1 ns), analysed only at the plasma membrane; GppNHp added to the culture did not change the signal
Conditions: partners not purified

FRET efficiency: 50%
B1: Citrine–Gαi3 (natural protein)
chain: MGCTLSAEDKAAVERSKMIDRNLREDGEKAAKEVKLLLLGAGESGKSTIVKQMKIIHEDGYSEDECKQYKVVVYSNTIQSIIAIIRAMGRLKIDFGEAARADDARQLFVLAGSAEEGVMTPELAGVIKRLWRDGGVQACFSRSREYQLNDSASYYLNDLDRISQSNYIPTQQDVLRTRVKTTGIVETHFTFKDLYFKMFDVGGQRSERKKWIHCFEGVTAIIFCVALSDYDLVLAEDEEMNRMHESMKLFDSICNNKWFTETSIILFLNKKDLFEEKIKRSPLTICYPEYTGSNTYEEAAAYIQCQFEDLNRRKDTKEIYTHFTCATDTKNVQFVFDAVTDVIIKNNLKECGLY
notes: cDNA in pcDNA3.1+ from UMR cDNA Resource Center; also called loop-tagged Gαi3; source: HEK 293, transiently transfected, in living cells; not shown: Citrine, internal (after residue 114), kept

FRET efficiency: 12.9%
B2: Citrine–GαsIEK (natural protein)
chain: MGCLGNSKTEDQRNEEKAQREANKKAAAQLQKDKQVYRATHRLLLLGAGESGKSTIVKQMRILHVNGFNGNSDGEKATKVQDIKNNLKEAIETIVAAMSNLVPPVELANPENQFRVDYILSVMNVPDFDFPPEFYEHAKALWEDEGVRACYERSNEYQLIDCAQYFLDKIDVIKQADYVPSDQDLLRCRVLTSGIFETKFQVDKVNFHMFDVGGQRDERRKWIQCFNDVTAIIFVVASSSYNMVIREDNQTNRLQEALNLFKSIWNNRWLRTISVILFLNKQDLLAEKVLAGKSKIEDYFPEFARYTTPEDATPEPGEDPRVTRAKYFIRDEFLRISTASGDGRHYCYPHFTCAVDTENIRRVFNDCRDIIQRMHLRQYELL
notes: Gαs subunit with the conserved region Ile26–Glu27–Lys28 (G.HN.43–45) changed to three alanines; cDNA from UMR cDNA Resource Center; the L1 loop Glu71-Ser82 exchanged for the fluorescent protein as in m1; Mutations made with the Quick Change method on the Gαs fusion; also called mutant GαsIEK protein; source: HEK 293, transiently transfected; in living cells (FLIM-FRET) and in cell lysate or …
